{
  "source": "paper PMC10504261",
  "about": "“Metabolism of plant-derived toxins from its insect host increases the success of the entomopathogenic fungus Beauveria bassiana” (The ISME Journal, 2023)",
  "key": {"BbGSTUre2p2": {"target": "T1, BbGSTUre2p2 (Beauveria bassiana, UniProt J5JP22)", "T1 construct": "gene BBA_04201", "T1 sequence (J5JP22 entry or part of it)": "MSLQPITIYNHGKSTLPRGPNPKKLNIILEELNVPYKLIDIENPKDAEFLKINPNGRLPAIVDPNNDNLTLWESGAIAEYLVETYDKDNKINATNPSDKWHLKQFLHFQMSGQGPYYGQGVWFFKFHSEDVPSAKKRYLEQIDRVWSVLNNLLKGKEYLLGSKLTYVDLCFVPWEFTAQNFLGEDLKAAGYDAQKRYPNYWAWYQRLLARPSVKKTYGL", "experiment": "GSH conjugation, absorbance at […] nm, Michaelis-Menten fit", "settings": "read-out: KM / μM; 4 mM GSH (saturating); ITC 25-800 µM; n = 4"}, "BbGSTN21": {"target": "T2, BbGSTN21 (Beauveria bassiana, UniProt J5JKP3)", "T2 construct": "gene BBA_07410", "T2 sequence (J5JKP3 entry or part of it)": "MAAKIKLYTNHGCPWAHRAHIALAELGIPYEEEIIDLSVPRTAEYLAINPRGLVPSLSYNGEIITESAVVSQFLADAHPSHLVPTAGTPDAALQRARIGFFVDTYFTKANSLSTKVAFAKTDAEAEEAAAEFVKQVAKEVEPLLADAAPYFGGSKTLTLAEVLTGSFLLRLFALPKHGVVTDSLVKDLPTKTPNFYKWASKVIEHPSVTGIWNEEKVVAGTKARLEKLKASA", "experiment": "GSH conjugation, absorbance at […] nm, Michaelis-Menten fit", "settings": "read-out: KM / μM; 4 mM GSH (saturating); ITC 25-800 µM; n = 4"}, "BbGSTe1": {"target": "T3, BbGSTe1 (Beauveria bassiana, UniProt J4UX82)", "T3 construct": "gene BBA_00672", "T3 sequence (J4UX82 entry or part of it)": "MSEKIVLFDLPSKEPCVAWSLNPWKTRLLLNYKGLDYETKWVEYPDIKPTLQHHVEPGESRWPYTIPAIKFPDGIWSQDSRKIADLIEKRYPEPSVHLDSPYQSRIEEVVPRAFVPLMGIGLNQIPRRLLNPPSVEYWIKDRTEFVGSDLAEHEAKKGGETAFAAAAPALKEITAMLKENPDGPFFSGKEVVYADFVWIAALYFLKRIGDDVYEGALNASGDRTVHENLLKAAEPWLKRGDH", "experiment": "GSH conjugation, absorbance at […] nm, Michaelis-Menten fit", "settings": "read-out: KM / μM; 4 mM GSH (saturating); ITC 25-800 µM; n = 4"}, "BbGSTUre2p3": {"target": "T4, BbGSTUre2p3 (Beauveria bassiana, UniProt J4KPJ4)", "T4 construct": "gene BBA_03339", "T4 sequence (J4KPJ4 entry or part of it)": "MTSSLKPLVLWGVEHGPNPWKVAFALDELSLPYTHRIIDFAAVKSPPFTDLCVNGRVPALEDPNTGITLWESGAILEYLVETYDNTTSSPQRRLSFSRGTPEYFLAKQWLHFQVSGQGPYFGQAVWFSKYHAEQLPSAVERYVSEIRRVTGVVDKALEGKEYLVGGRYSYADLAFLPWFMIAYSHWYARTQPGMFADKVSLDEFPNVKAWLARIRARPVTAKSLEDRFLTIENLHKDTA", "experiment": "GSH conjugation, absorbance at […] nm, Michaelis-Menten fit", "settings": "read-out: KM / μM; 4 mM GSH (saturating); ITC 25-800 µM; n = 4"}, "C=CCN=C=S": {"system": "C=CCN=C=S", "experiment": "purified protein", "settings": "4 mM GSH (saturating); ITC 25-800 µM; n = 4"}, "S=C=NCCc1ccccc1": {"system": "S=C=NCCc1ccccc1", "experiment": "purified protein", "settings": "4 mM GSH (saturating); ITC 25-800 µM; n = 4"}},
  "data": [
    {"compound": "C[S+]([O-])CCCCN=C=S", "note": "(stereo not drawn) [1a, 4MSOB-ITC]", "values": [
      {"measurement": "Km", "setting": "BbGSTUre2p2", "value": "1210 ± 890", "unit": "µM"},
      {"measurement": "Km", "setting": "BbGSTN21", "value": "1130 ± 578", "unit": "µM"},
      {"measurement": "Km", "setting": "BbGSTe1", "value": "1220 ± 839", "unit": "µM"},
      {"measurement": "Km", "setting": "BbGSTUre2p3", "value": "747 ± 338", "unit": "µM"}
    ]},
    {"compound": "BbGSTN21 (Beauveria bassiana ARSEF 2860)", "values": [
      {"measurement": "Km", "setting": "C=CCN=C=S", "value": "448.48 ± 226.89", "unit": "µM"},
      {"measurement": "Vmax", "setting": "C=CCN=C=S", "value": 2.39, "unit": "µmol/min/mg"},
      {"measurement": "kcat", "setting": "C=CCN=C=S", "value": "1 ± 0.24", "unit": "s⁻¹"},
      {"measurement": "kcat/Km", "setting": "C=CCN=C=S", "value": "2230 ± 540", "unit": "M⁻¹ s⁻¹"},
      {"measurement": "Km", "setting": "S=C=NCCc1ccccc1", "value": "1191.89 ± 1464.92", "unit": "µM"},
      {"measurement": "Vmax", "setting": "S=C=NCCc1ccccc1", "value": 0.97, "unit": "µmol/min/mg"},
      {"measurement": "kcat", "setting": "S=C=NCCc1ccccc1", "value": "0.41 ± 0.36", "unit": "s⁻¹"},
      {"measurement": "kcat/Km", "setting": "S=C=NCCc1ccccc1", "value": "340 ± 300", "unit": "M⁻¹ s⁻¹"}
    ]},
    {"compound": "BbGSTUre2p2 (Beauveria bassiana ARSEF 2860)", "values": [
      {"measurement": "Km", "setting": "C=CCN=C=S", "value": "487.23 ± 266.11", "unit": "µM"},
      {"measurement": "Vmax", "setting": "C=CCN=C=S", "value": 0.44, "unit": "µmol/min/mg"},
      {"measurement": "kcat", "setting": "C=CCN=C=S", "value": "0.18 ± 0.05", "unit": "s⁻¹"},
      {"measurement": "kcat/Km", "setting": "C=CCN=C=S", "value": "370 ± 100", "unit": "M⁻¹ s⁻¹"},
      {"measurement": "Km", "setting": "S=C=NCCc1ccccc1", "value": "223.06 ± 86.81", "unit": "µM"},
      {"measurement": "Vmax", "setting": "S=C=NCCc1ccccc1", "value": 0.15, "unit": "µmol/min/mg"},
      {"measurement": "kcat", "setting": "S=C=NCCc1ccccc1", "value": "0.06 ± 0.01", "unit": "s⁻¹"},
      {"measurement": "kcat/Km", "setting": "S=C=NCCc1ccccc1", "value": "280 ± 50", "unit": "M⁻¹ s⁻¹"}
    ]},
    {"compound": "BbGSTUre2p3 (Beauveria bassiana ARSEF 2860)", "values": [
      {"measurement": "Km", "setting": "C=CCN=C=S", "value": "831.61 ± 572.57", "unit": "µM"},
      {"measurement": "Vmax", "setting": "C=CCN=C=S", "value": 0.59, "unit": "µmol/min/mg"},
      {"measurement": "kcat", "setting": "C=CCN=C=S", "value": "0.27 ± 0.11", "unit": "s⁻¹"},
      {"measurement": "kcat/Km", "setting": "C=CCN=C=S", "value": "320 ± 130", "unit": "M⁻¹ s⁻¹"},
      {"measurement": "Km", "setting": "S=C=NCCc1ccccc1", "value": "71.76 ± 38.91", "unit": "µM"},
      {"measurement": "Vmax", "setting": "S=C=NCCc1ccccc1", "value": 0.08, "unit": "µmol/min/mg"},
      {"measurement": "kcat", "setting": "S=C=NCCc1ccccc1", "value": "0.04 ± 0.01", "unit": "s⁻¹"},
      {"measurement": "kcat/Km", "setting": "S=C=NCCc1ccccc1", "value": "490 ± 80", "unit": "M⁻¹ s⁻¹"}
    ]},
    {"compound": "BbGSTe1 (Beauveria bassiana ARSEF 2860)", "values": [
      {"measurement": "Km", "setting": "C=CCN=C=S", "value": "312.75 ± 100.06", "unit": "µM"},
      {"measurement": "Vmax", "setting": "C=CCN=C=S", "value": 0.41, "unit": "µmol/min/mg"},
      {"measurement": "kcat", "setting": "C=CCN=C=S", "value": "0.19 ± 0.02", "unit": "s⁻¹"},
      {"measurement": "kcat/Km", "setting": "C=CCN=C=S", "value": "590 ± 80", "unit": "M⁻¹ s⁻¹"},
      {"measurement": "Km", "setting": "S=C=NCCc1ccccc1", "value": "860.76 ± 561.56", "unit": "µM"},
      {"measurement": "Vmax", "setting": "S=C=NCCc1ccccc1", "value": 1.9, "unit": "µmol/min/mg"},
      {"measurement": "kcat", "setting": "S=C=NCCc1ccccc1", "value": "0.88 ± 0.35", "unit": "s⁻¹"},
      {"measurement": "kcat/Km", "setting": "S=C=NCCc1ccccc1", "value": "1020 ± 410", "unit": "M⁻¹ s⁻¹"}
    ]}
  ]
}
